Target: T1, GST-PDZK1 tail (human, UniProt Q5T2W1 459-519)
T1 sequence (looked up): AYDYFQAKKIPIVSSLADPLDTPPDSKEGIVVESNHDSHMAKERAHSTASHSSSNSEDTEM
Assay: pull-down

B1: EBP50 (1-354) (domain or fragment, UniProt O14745 1-354, looked up)
chain: MSADAAAGAPLPRLCCLEKGPNGYGFHLHGEKGKLGQYIRLVEPGSPAEKAGLLAGDRLVEVNGENVEKETHQQVVSRIRAALNAVRLLVVDPETDEQLQKLGVQVREELLRAQEAPGQAEPPAAAEVQGAGNENEPREADKSHPEQRELRPRLCTMKKGPSGYGFNLHSDKSKPGQFIRSVDPDSPAEASGLRAQDRIVEVNGVCMEGKQHGDVVSAIRAGGDETKLLVVDRETDEFFKKCRVIPSQEHLNGPLPVPFTNGEIQKENSREALAEAALESPRPALVRSASSDTSEELNSQDSPPKQDSTAPSSTSSSDPILDFNISLAMAKERAHQKRSSKRAPQMDWSKKNEL
amount precipitated relative to full-length EBP50 (1-358): 2.4 times

Reference: article PMC2861611 (Molecular Biology of the Cell, 2010)
